Assay results reported in the DeepSol protein solubility set.

test: soluble on expression in E. coli; label from the status in PepcDB or PDB records

Sequence	soluble on expression in E. coli
AKIYDKNGELVKTLDNGQRHEHVNIKDVPKDMKNAVLATEDNRFYQHGALDYKRLFGAIGKNLTGGFGSQGASTLTQQVVKDSFLTQQKSIGRKAQEAYLSYRLEQEYSKDEIFQVYMNKIYYSDGVTGIKAAAKYYFNKDMKDLNLAEEAYLAGLPQVPNLYNIYNNP	not soluble
ASMTGNECPELQPPVHGKIEPSQAKYFFKDQVLVSCDTGYKVLKDNVEMDTFQIECLKDGTWSNKIPTCKIVDCRAPGELEHGLITFSTRNNLTTYKSEIKYSCQEPYYKMLNNNTGIYTCSAQGVWMNKVLGRSLPTCLPVCGLPKFSRKLMAR	soluble
MMDDILKQIKAGEVSGVQFKERILDKYDIACELVAFSNSHGGKLVVGIKDKTGETNALSYSEVQETTNLLSDIASENVVPSILIKIDTVEVEDGNLVVATVKEGLNKPYHDNKGIVWVKNGADKRKVFDNAELAEMMTDCGSFAPDEAGVRDATVNDLDATTIKQFLGNRFERVLDKKGLTGDAFNEASLDMICSAIAKGHDCEKILRNLRFIRPDGTLTVAAMLLFGKYTQRWMPMMTAKCICFAGNSVGSKVFRDKVNDADMEGNLLHQYDTIMDFFTRNLHNVQVGDEFNSMGKLEIPYTSLVEFTVNSLVHRSLNMKAPVRIFIFDNRVEIHSPGALPNGLTIDDIKAGTSMPRNTFLFNNAIYLLPYTGVGSGITRALDEDINVTFMNNDKAQEFVITVWRGESNQVEDLDTGLRHSDTDLDTGLRHSDTDLDTKRVTLTNKEKDIVNFCSVPRTTKEILDRIGVSMHSKNRERYITSLVAAGYLQMTNPDNPTASNQKYKKVNKR	not soluble
ASLLARYPPEKLFQAERNFNAAQDLDVSLLEGDLVGVIKKKDPMGSQNRWLIDNGVTKGFVYSSFLKPYNPRRSHSDAS	soluble
MTKSETTLSKLLVESELVQECEELLSSLPRDRSVFAEYLYQYQGFWYPPNLLEGVLYSQKHFQARDSDIVLASIPKSGTTWLKSLVFALIHRQEFQTPLVSHPLLDNNPHTLVTFIEGFHLHTQDTSPRIFSTHIPVGSLPESVKDSSCKVVYCCRNPKDAFVSLWHFMKNLIVKEMVGCTMEEMVRFFCRGSSIYGPFWDHVLQYWKESRENPKKVMFVMYEEMREQPQEWVMRIAEFLGYSFTEEEIENGVLEDIIKLCSLENLSKLEVNEKGKLLNGMETKAFFRKGEIGGWRDTLTPLLAEEIDKTTKEKLIGSDFRFFC	soluble
MSLADVILHAFNWPYATVEARAKQIADAGYRKVLVAPAYRSEGSAWWARYQPQDIRLIDNPLGDTAAFKKMVQALASNGVETYADIVFNHMANEAATRSDLNYPGGAVLSQYAANPGRYDSLRLFGTLQSNFLSASDFGPAQCISNYNDAYQVRNYRICGGGSDPGLPDLLGNDWVVQQQRAYLQALKSMGVTGFRVDAAKHMTFDHLNRVFDAGIRSGVYVFGEVITGGGTGNGDYDQFLAPYLQSTPHAAYDFPLFNAVRNAFAIGASMQQLVDPAASGQALPGNRAVTFAVTHDIPNNAGFRYAILDPVDETLAYAYLIGRNGGMPMLYTDNNESGDNRWVNAYLRDDLRRMIGFHNGVQGTDMQVLSSSSCHILFRRGSLGIVGINKCGNPVTTTVGMNNSVLYWNADYVDALGSGNVVRISSSSYTFTLPARGARMWRREGHHHHHH	not soluble
MGSDKIHHHHHHMKEKLRLYHTNDLHSHFENWPKIVDYIEQKRKEHQSDGEETLVFDIGDHLDRFQFVTEATFGKANVDLLNRLHIDGAAIGNNEGITLPHEELAALYDHAEFPVIVSNLFDKNGNRPSWAVPYHIKSLKNGMSIAFLGVTVPYYPVYDKLGWTVTDALESIKETILEVKGQADIIVLLSHLGILDDQAVAEAVPEIDVILESHTHHLLEDGQVVNGVLLASAEKYGHYVGCVEITVDSVQRSINSKTASVQNMAEWTGESAETKAFLNEKEREAEEKLSDAVAELAQDAEVKWFEESELPLLLAYALKEWCETDISMVNSGVILGPLKAGPVTKLDLHRICPHPINPVAVRLTGEELKETIVHAASEQMEQLRIKGLGFRGEVMGKMVYAGVEVETKRLDDGITHVTRITLNGEDIEKHKQYSVAVLDMFTLGKLFPLIRDAAEKEYFMPEFLRDLLAWKLAQ	not soluble
MSSTLREASKDTLQAKDKTYHYYSLPLAAKSLGDIARLPKSLKVLLENLLRWQDGESVTDEDIQALAGWLKNAHADREIAWRPARVLMQDFTGVPAVVDLAAMREAVKRLGGDTSKVNPLSPVDLVIDHSVTVDHFGDDDAFEENVRLEMERNHERYMFLKWGKQAFSRFSVVPPGTGICHQVNLEYLGKAVWSELQDGEWIAYPDSLVGTDSHTTMINGLGVLGWGVGGIEAEAAMLGQPVSMLIPDVVGFKLTGKLREGITATDLVLTVTQMLRKHGVVGKFVEFYGDGLDSLPLADRATIANMSPEYGATCGFFPIDAITLEYMRLSGRSDDLVELVETYAKAQGMWRNPGDEPVFTSTLELDMGDVEASLAGPKRPQDRVALGDVPKAFAASAELELNTAQRDRQPVDYTMNGQPYQLPDGAVVIAAITSCTNTSNPSVLMAAGLLAKKAVTLGLKRQPWVKASLAPGSKVVSDYLAQAKLTPYLDELGFNLVGYGCTTCIGNSGPLPEPIETAIKKGDLTVGAVLSGNRNFEGRIHPLVKTNWLASPPLVVAYALAGNMNINLATDPLGYDRKGDPVYLKDIWPSAQEIARAVELVSSDMFRKEYAEVFEGTEEWKSIQVESSDTYGWQSDSTYIRLSPFFDEMQAQPAPVKDIHGARILAMLGDSVTTDHISPAGSIKPDSPAGRYLQNHGVERKDFNSYGSRRGNHEVMMRGTFANIRIRNEMLPGVEGGMTRHLPGTEAMSIYDAAMLYQQEKTPLAVIAGKEYGSGSSRDWAAKGPRLLGIRVVIAESFERIHRSNLIGMGILPLEFPQGVTRKTLGLTGEEVIDIADLQNLRPGATIPVTLTRSDGSKETVPCRCRIDTATELTYYQNDGILHYVIRNMLN	not soluble
MGSDKIHHHHHHMANLYDLKKFDLNLLVIFECIYQHLSISKAAESLYITPSAVSQSLQRLRAQFNDPLFIRSGKGIAPTTTGLNLHHHLEKNLRGLEQTINIVNKSELKKNFIIYGPQLISCSNNSMLIRCLRQDSSVEIECHDILMSAENAEELLVHRKADLVITQMPVISRSVICMPLHTIRNTLICSNRHPRITDNSTYEQIMAEEFTQLISKSAGVDDIQMEIDERFMNRKISFRGSSLLTIINSIAVTDLLGIVPYELYNSYRDFLNLKEIKLEHPLPSIKLYISYNKSSLNNLVFSRFIDRLNESF	not soluble
MVQLDGGQFEMGTKATDGKDGESPVMQVKVLPFAIDKYPVTNRDFREFVRAKKYKTEAEAFGWSFVFEDFVSEELKKKVTQKLESAPWWLPVERAFWRQVSNLSVPLLLSGGSKGLFAAE	not soluble
DLVASGATLPEIQKRGYLTVAVKDNLRPLGFRDDKGNLQGLEIDLAKRLANDLLGKPDAVKFQPVANSDRLPVIVENKIDLAIANVTATESRSRIVSFSVPYYYDGAAIVTKDTSINQLEDLYRRKIAVLNNSSTIFYVKYFIPKSELIGVSSYAQAQEKIESNAVDAFAADNSLLSGWVQEYPKYHILPSQLSTEPLSVVMAKGLQYDEFRRSVNEAIARYIATGWLKESTQHWGLGNSQEKTLTTDR	not soluble
MTMTTMPESLNSPVSGKAVFMEFGPPNQQMSPSPMSHGHYSMHCLHSAGHSQPDGAYSSASSFSRPLGYPYVNSVSSHASSPYISSVQSYPGSASLAQSRLEDPGQDLVPKQAIQVQEADEAGWGGSGG	soluble
MQDNSTKYLLYIQTATSNHLETNCVFLHCDYILKVPINKLVSYYAKLHLSSQSVLIETAKNILNINKLVPIYINPKTILFPLKHKRAPIQIYINAHYIVGMTAIENSTLIHFQEGIQLEVDEPFSLVSKKCHESLALKHFIENTISNLEHHHHHH	not soluble
MGSDKIHHHHHHMINRSLGISCGLVIVLAGCSETTTKDSSKTVPKTSETVKSDIIFKNLRTPWNIEKNQEVFYITEREGTIVKGTEGNYSRTDLELTEPVVAQGEGGLLGMALDPDFSKNRTAYVYHTYEKDGALWNRIIAIKEEKESWKEQRVLLDKIPGATIHNGGRIEIGPDGLLYVTAGDAAVPENAQKLSSLSGKILRMKLDGKPADGNVKEYIYSYGHRNPQGLVFVDQTLYATEHGQNGHDEINRIEQKNYGWPLIEGTEKQQGLVTPWYEVGEKSIAPSGVAEQNGKLYFGTLVGQSLRSIETESSKVEQIVTDRGRIRDVMTDGKELYYVTNNTDGRGNSSDEDDVLVRLKP	not soluble
MKLNFNPVTKEEIHQLETALLVGTLFRKEVLEEIRNSAERLTWVDSLAVAAGALARAKAGMTASEIAEELGRTEATIREHVKGETKAGKLVNETYELLKEGKLSVEGLIGEGIKVVTTTTGSDEKLQEVKKELEEIKQKLESVIQKL	soluble
MGSSHHHHHHSSGLGPGGSHMASMSDSEVNQEAKPEVKPEVKPETHINLKVSDGSSEIFFKIKKTTPLRRLMEAFAKRQGKEMDSLRFLYDGIRIQADQTPEDLDMEDNDIIEAHREQIGGSLGRACKYENPARWSEQEQAIKGVYSSWVTDNILAMARPSSELLEKYHIIDQFLSHGIKTIINLQRPGEHASCGNPLEQESGFTYLPEAFMEAGIYFYNFGWKDYGVASLTTILDMVKVMTFALQEGKVAIHCHAGLGRTGVLIACYLVFATRMTADQAIIFVRAKRPNSIQTRGQLLCVREFTQFLTPLRNIFSEGHHHHHH	soluble
EVQLQQSGAELARPGASVKMSCKASGYTFTSYTMHWVKQRPGQGLEWIGYINPSSGYSNYNQKFKDKATLTADKSSSTAYMQLSSLTSEDSAVYYCSRPVVRLGYNFDYWGQGSTLTVSSAKTTPPSVYPLAPGSAAQTNSMVTLGCLVKGYFPEPVTVTWNSGSLSSGVHTFPAVLQSDLYTLSSSVTVPSSTWPSETVTCNVAHPASSTKVDKKIVP	soluble
MKFKKLLSRIIIATMITFTGTLSYQAIEQTHISHAAHNYYGKKQCTWWAFKRRAQLGKPVSNRWGNAKNWYSNARRSGYATGHKPRKYAVMQSTRGYYGHVAVVEKVYKNGKIKISEYNYNVPLGYGTRIISKSSARNYNYIYLEHHHHHH	not soluble
MSLLFLAMAPKPKPWVQTEGPEKKKGRQAGREEDPFRSTAEALKAIPAEKRIIRVDPTCPLSSNPGTQVYEDYNCTLNQTNIENNNNKFYIIQLLQDSNRFFTCWNRWGRVGEVGQSKINHFTRLEDAKKDFEKKFREKTKNNWAERDHFVSHPGKYTLIEVQAEDEAQEAVVKVDRGPVRTVTKRVQPCSLDPATQKLITNIFSKEMFKNTMALMDLDVKKMPLGKLSKQQIARGFEALEALEEALKGPTDGGQSLEELSSHFYTVIPHNFGHSQPPPINSPELLQAKKDMLLVLADIELAQALQAVSEQEKTVEEVPHPLDRDYQLLKCQLQLLDSGAPEYKVIQTYLEQTGSNHRCPTLQHIWKVNQEGEEDRFQAHSKLGNRKLLWHGTNMAVVAAILTSGLRIMPHSGGRVGKGIYFASENSKSAGYVIGMKCGAHHVGYMFLGEVALGREHHINTDNPSLKSPPPGFDSVIARGHTEPDPTQDTELELDGQQVVVPQGQPVPCPEFSSSTFSQSEYLIYQESQCRLRYLLEVHL	soluble
